The record followed here is PMC12411348 (2025).

In this assay the target is recombinant human pVHL (CUSABIO) (human, UniProt P40337-1 1-213). Put plainly: SPR.
Chain of recombinant human pVHL (CUSABIO) (P40337 whole entry): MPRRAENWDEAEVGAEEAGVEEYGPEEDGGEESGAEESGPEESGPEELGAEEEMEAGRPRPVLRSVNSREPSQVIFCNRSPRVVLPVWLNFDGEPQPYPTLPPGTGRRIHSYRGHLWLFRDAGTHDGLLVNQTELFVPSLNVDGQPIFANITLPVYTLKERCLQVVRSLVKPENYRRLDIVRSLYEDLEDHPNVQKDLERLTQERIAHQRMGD

B1: recombinant TCF7L2(1–456) (domain or fragment)
chain: MPQLNGGGGDDLGANDELISFKDEGEQEEKSSENSSAERDLADVKSSLVNESETNQNSSSDSEAERRPPPRSESFRDKSRESLEEAAKRQDGGLFKGPPYPGYPFIMIPDLTSPYLPNGSLSPTARTLHFQSGSTHYSAYKTIEHQIAVQYLQMKWPLLDVQAGSLQSRQALKDARSPSPAHIVSNKVPVVQHPHHVHPLTPLITYSNEHFTPGNPPPHLPADVDPKTGIPRPPHPPDISPYYPLSPGTVGQIPHPLGWLVPQQGQPVYPITTGGFRHPYPTALTVNASMSRFPPHMVPPHHTLHTTGIPHPAIVTPTVKQESSQSDVGSLHSSKHQDSKKEEEKKKPHIKKPLNAFMLYMKEMRAKVVAECTLKESAAINQILGRRWHALSREEQAKYYELARKERQLHMQLYPGWSARDNYGKKKKRKRDKQPGETNEHSECFLNPCLSLPPIT
Broadly, the Kd is the free concentration of one partner at which half of the binding sites on the other are occupied at equilibrium, for simple one-to-one binding. With B1, the Kd stood at 806 nM.
